T1: Npl4 (wild type, purified without Ufd1) (UniProt P33755 1-580)
T1 sequence (looked up): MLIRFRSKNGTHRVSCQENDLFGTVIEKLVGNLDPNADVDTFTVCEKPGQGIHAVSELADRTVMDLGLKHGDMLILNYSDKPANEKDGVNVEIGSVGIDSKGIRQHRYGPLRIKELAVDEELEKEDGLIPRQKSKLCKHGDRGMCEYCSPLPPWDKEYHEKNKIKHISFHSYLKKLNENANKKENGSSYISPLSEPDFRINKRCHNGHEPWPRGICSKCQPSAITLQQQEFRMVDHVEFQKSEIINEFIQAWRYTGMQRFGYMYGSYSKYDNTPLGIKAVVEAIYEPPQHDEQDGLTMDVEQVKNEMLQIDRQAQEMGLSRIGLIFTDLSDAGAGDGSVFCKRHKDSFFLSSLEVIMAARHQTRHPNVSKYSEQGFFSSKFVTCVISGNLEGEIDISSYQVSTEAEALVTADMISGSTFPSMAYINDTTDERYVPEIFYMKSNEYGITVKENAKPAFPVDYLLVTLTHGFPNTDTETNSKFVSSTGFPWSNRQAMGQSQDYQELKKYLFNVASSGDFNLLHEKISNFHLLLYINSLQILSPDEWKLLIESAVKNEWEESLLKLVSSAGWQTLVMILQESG

T2: Ufd1/Npl4 heterodimer (wild type) (UniProt P53044 1-361; P33755 1-580)
T2 sequence (looked up) 1: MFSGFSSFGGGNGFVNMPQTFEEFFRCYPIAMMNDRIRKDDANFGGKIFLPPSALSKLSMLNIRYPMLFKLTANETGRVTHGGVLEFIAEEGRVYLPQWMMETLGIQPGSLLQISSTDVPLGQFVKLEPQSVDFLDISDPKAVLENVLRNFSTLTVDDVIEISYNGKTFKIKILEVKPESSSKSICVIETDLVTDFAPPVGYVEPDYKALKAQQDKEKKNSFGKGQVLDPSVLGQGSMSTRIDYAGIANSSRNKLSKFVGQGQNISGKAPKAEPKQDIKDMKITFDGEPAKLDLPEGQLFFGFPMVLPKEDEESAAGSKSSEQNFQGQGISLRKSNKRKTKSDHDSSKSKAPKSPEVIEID
T2 sequence (looked up) 2: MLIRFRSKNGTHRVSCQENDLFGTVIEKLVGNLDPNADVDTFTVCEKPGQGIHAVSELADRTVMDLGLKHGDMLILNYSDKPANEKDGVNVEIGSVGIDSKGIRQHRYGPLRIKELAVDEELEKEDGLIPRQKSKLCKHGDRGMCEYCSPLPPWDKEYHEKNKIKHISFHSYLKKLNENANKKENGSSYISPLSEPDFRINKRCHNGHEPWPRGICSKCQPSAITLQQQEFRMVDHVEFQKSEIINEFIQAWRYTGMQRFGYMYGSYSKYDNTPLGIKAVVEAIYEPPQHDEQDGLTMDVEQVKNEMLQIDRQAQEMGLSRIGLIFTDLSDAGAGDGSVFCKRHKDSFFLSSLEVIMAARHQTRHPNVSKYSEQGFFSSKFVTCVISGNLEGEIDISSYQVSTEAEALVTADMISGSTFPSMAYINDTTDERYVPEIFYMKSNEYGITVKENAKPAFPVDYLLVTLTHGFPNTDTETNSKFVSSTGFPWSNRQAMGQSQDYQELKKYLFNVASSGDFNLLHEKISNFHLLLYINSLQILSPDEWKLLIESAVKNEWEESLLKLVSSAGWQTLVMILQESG

T3: Ufd1^L55R/Npl4 (UniProt P53044 1-361; P33755 1-580, L55R)
T3 sequence (looked up) 1: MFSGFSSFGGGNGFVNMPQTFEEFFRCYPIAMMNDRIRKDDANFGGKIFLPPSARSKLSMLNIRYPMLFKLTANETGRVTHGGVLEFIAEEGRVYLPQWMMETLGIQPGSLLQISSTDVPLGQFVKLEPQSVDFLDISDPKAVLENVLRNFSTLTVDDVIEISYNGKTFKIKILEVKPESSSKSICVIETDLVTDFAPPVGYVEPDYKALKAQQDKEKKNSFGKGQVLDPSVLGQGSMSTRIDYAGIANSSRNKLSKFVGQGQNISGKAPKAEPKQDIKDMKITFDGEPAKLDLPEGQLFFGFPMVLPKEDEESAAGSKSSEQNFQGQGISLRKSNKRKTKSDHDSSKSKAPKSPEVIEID
T3 sequence (looked up) 2: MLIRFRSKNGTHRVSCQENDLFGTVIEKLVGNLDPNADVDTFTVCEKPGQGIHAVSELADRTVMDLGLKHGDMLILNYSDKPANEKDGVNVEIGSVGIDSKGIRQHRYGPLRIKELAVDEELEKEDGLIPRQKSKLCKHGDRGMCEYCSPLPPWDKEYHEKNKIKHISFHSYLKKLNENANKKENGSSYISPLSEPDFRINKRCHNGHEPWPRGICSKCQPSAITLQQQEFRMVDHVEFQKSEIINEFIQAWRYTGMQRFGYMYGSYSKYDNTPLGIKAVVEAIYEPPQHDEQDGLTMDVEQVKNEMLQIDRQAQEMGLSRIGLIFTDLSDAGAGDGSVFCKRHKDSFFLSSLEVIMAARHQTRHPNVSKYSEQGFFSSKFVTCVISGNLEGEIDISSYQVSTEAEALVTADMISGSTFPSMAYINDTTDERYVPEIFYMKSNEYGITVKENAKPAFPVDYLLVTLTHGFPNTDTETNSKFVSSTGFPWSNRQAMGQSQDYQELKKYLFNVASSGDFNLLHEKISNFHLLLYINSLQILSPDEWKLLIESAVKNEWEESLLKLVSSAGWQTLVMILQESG


Columns and labels:
[1] = target: T1, Npl4 (wild type, purified without Ufd1); experiment: SEC
[2] = target: T2, Ufd1/Npl4 heterodimer (wild type); experiment: ATPase activity titration
Ufd1^L55R/Npl4 = target: T3, Ufd1^L55R/Npl4; experiment: ATPase activity titration

Row | binding result [1] | Kd [2] [nM] | Kd (Ufd1^L55R/Npl4) [nM] | Binder
1 | binds |  |  | Ufd1 (wild type, purified without Npl4) (natural protein, UniProt P53044 1-361, looked up) MFSGFSSFGGGNGFVNMPQTFEEFFRCYPIAMMNDRIRKDDANFGGKIFLPPSALSKLSMLNIRYPMLFKLTANETGRVTHGGVLEFIAEEGRVYLPQWMMETLGIQPGSLLQISSTDVPLGQFVKLEPQSVDFLDISDPKAVLENVLRNFSTLTVDDVIEISYNGKTFKIKILEVKPESSSKSICVIETDLVTDFAPPVGYVEPDYKALKAQQDKEKKNSFGKGQVLDPSVLGQGSMSTRIDYAGIANSSRNKLSKFVGQGQNISGKAPKAEPKQDIKDMKITFDGEPAKLDLPEGQLFFGFPMVLPKEDEESAAGSKSSEQNFQGQGISLRKSNKRKTKSDHDSSKSKAPKSPEVIEID
2 | binds |  |  | Ufd1^L55R (purified without Npl4) (natural protein, UniProt P53044 1-361, looked up) MFSGFSSFGGGNGFVNMPQTFEEFFRCYPIAMMNDRIRKDDANFGGKIFLPPSARSKLSMLNIRYPMLFKLTANETGRVTHGGVLEFIAEEGRVYLPQWMMETLGIQPGSLLQISSTDVPLGQFVKLEPQSVDFLDISDPKAVLENVLRNFSTLTVDDVIEISYNGKTFKIKILEVKPESSSKSICVIETDLVTDFAPPVGYVEPDYKALKAQQDKEKKNSFGKGQVLDPSVLGQGSMSTRIDYAGIANSSRNKLSKFVGQGQNISGKAPKAEPKQDIKDMKITFDGEPAKLDLPEGQLFFGFPMVLPKEDEESAAGSKSSEQNFQGQGISLRKSNKRKTKSDHDSSKSKAPKSPEVIEID
3 |  | 1000 | 500 | Cdc48 (enzyme, yeast, UniProt P25694 1-835, looked up) MGEEHKPLLDASGVDPREEDKTATAILRRKKKDNMLLVDDAINDDNSVIAINSNTMDKLELFRGDTVLVKGKKRKDTVLIVLIDDELEDGACRINRVVRNNLRIRLGDLVTIHPCPDIKYATRISVLPIADTIEGITGNLFDVFLKPYFVEAYRPVRKGDHFVVRGGMRQVEFKVVDVEPEEYAVVAQDTIIHWEGEPINREDEENNMNEVGYDDIGGCRKQMAQIREMVELPLRHPQLFKAIGIKPPRGVLMYGPPGTGKTLMARAVANETGAFFFLINGPEVMSKMAGESESNLRKAFEEAEKNAPAIIFIDEIDSIAPKRDKTNGEVERRVVSQLLTLMDGMKARSNVVVIAATNRPNSIDPALRRFGRFDREVDIGIPDATGRLEVLRIHTKNMKLADDVDLEALAAETHGYVGADIASLCSEAAMQQIREKMDLIDLDEDEIDAEVLDSLGVTMDNFRFALGNSNPSALRETVVESVNVTWDDVGGLDEIKEELKETVEYPVLHPDQYTKFGLSPSKGVLFYGPPGTGKTLLAKAVATEVSANFISVKGPELLSMWYGESESNIRDIFDKARAAAPTVVFLDELDSIAKARGGSLGDAGGASDRVVNQLLTEMDGMNAKKNVFVIGATNRPDQIDPAILRPGRLDQLIYVPLPDENARLSILNAQLRKTPLEPGLELTAIAKATQGFSGADLLYIVQRAAKYAIKDSIEAHRQHEAEKEVKVEGEDVEMTDEGAKAEQEPEVDPVPYITKEHFAEAMKTAKRSVSDAELRRYEAYSQQMKASRGQFSNFNFNDAPLGTTATDNANSNNSAPSGAGAAFGSNAEEDDDLYS

— PMC9992269 (Molecular cell, 2023)
